Test results from publication PMC6141180, “The TAB1-p38α complex aggravates myocardial injury and can be targeted by small molecules” (JCI Insight, 2018).
fluorescein = fluorescein label (on the lysine ε-amine)

B1: MKK3b peptide, unlabeled (peptide)
peptide: Ac-GKSKRKKDLRISCMSKP-NH2
notes: stretch of MKK3b, the most abundant splice variant of MAP2K3; also called unlabeled MKK3b
B2: fluorescein-labeled MKK3b peptide (peptide)
peptide: Ac-GKSKRKKDLRISCMSKPK(fluorescein)-NH2
notes: stretch of MKK3b, the most abundant splice variant of MAP2K3; added C-terminal lysine that carries the fluorescein; also called C-terminal labelled MKK3b peptide

The binders below were run against T1, p38α (MAPK14), nonphosphorylated (mouse, UniProt P47811 1-360) (assay: fluorescence polarisation; competition: unlabeled peptide titrated into 2 nM fluorescein-labeled MKK3b peptide and 10 μM p38α; 50 mM HEPES pH 7.4, 10 mM MgCl2, 1 mM Chaps, 1 mM DTT, 1% DMSO; ambient temperature, 20 minutes). Details: both partners purified.
T1 construct: mouse p38α (MAPK14); Also used as the target of the functional rows on co-expressed p38α (E. coli pETDuet-1 first cloning site; HEK293 plasmid not described); source: E. coli Rosetta II (pETDuet-1), purified
T1 sequence (P47811 whole entry): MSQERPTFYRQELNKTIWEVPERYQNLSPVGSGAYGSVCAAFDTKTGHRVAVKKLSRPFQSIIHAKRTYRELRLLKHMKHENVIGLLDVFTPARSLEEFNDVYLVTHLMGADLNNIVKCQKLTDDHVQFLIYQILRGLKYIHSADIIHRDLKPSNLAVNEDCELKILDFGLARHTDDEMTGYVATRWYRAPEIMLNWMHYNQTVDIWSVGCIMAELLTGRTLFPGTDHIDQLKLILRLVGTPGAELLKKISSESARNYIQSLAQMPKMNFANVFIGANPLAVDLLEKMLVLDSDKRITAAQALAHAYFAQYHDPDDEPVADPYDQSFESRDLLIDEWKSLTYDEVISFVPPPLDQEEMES

Binding result, binds:
B1, B2, Ac-RVYPVSVPYSSAQSTSKTSVTLSLVMPSQ-NH2 (also called TAB-1 peptide; TAB1 peptide) [TAB1 (residues 384–412) peptide]
